The source of these data is article doi:10.1101/2020.09.17.302869.

Like-named read-outs stand apart in the source and are kept apart here.

What all share (assay): MST
Experiment [1] has as its target sarco/endoplasmic reticulum Ca2+-ATPase (SERCA), native rabbit, detergent solubilized (rabbit) (UniProt P04191).
Experiment [2] has the same target. This is another data set of the same source.
Experiment [3] has the same target. This is another data set of the same source.

UniProt P04191, sequence (P04191 whole entry): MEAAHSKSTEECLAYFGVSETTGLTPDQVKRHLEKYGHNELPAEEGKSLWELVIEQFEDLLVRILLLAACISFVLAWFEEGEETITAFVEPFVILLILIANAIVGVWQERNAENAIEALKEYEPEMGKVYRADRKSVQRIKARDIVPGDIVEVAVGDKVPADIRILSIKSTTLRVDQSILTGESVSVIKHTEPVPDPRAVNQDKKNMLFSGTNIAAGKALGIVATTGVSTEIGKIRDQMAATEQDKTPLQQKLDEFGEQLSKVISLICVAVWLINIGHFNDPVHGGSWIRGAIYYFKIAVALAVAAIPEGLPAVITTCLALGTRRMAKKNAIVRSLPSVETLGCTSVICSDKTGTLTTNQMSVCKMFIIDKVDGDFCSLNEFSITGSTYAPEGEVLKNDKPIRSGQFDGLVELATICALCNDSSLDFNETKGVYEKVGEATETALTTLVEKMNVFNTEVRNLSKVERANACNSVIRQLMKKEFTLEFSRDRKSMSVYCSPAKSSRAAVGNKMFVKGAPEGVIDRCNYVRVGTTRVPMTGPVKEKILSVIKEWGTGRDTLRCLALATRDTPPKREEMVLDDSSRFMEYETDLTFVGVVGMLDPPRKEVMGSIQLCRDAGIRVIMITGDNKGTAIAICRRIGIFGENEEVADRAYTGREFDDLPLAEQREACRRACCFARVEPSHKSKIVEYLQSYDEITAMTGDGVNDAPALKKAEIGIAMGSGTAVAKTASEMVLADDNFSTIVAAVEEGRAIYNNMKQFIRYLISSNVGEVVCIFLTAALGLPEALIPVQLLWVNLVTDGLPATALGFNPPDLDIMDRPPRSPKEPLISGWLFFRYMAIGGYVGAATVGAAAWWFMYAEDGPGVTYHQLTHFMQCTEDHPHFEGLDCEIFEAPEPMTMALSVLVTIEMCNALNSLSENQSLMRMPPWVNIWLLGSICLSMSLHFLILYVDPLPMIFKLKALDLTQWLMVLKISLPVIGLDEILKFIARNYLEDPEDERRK

B1: rabbit HRC (496-656) (domain or fragment)
chain: STENGHQAHRHQGHGKEEAEVTSDEHHHHVPDHGHQGHGDKEGEEEGVSTDHWHQVPRHAHHGPGGEEEGGEEELTVKAGHHVASHPPPGHRSREGHAEEHQTEVPGHHQHRMGDTDTSAERGHPASSPRQQGHPPEDTVHHHRGSLKEEVGPESPGPAGV
In experiment [1], B1 gave a Kd of 500 to 1000 nM. Moreover, in experiment [2], the dissociation constant (Kd) is 5600 nM. In experiment [3], this molecule had a Kd of 140 nM; a fold decrease in affinity with increased KCl concentration of more than 100 fold; a fold decrease in affinity, 200 mM against 50 mM KCl of more than 300 fold.

B2: rabbit HRC (458-640) (domain or fragment)
chain: GEEEDEDDDDEGEHHHVPHRGHRGHEEDDGGDDDDGDDSTENGHQAHRHQGHGKEEAEVTSDEHHHHVPDHGHQGHGDKEGEEEGVSTDHWHQVPRHAHHGPGGEEEGGEEELTVKAGHHVASHPPPGHRSREGHAEEHQTEVPGHHQHRMGDTDTSAERGHPASSPRQQGHPPEDTVHHHRG
Turning to B2, in experiment [3], the fold loss of affinity on removal of residues 640-666 is 10 fold.

B3: rabbit HRC (458-520) (domain or fragment)
chain: GEEEDEDDDDEGEHHHVPHRGHRGHEEDDGGDDDDGDDSTENGHQAHRHQGHGKEEAEVTSDE
Consider B3, for which the fold reduction of affinity by C-terminal truncation in experiment [3] is more than 1000 fold.
